Laboratory results as given in the supplement of paper PMC10567573.

B1: SAT2 (parent)
chain: LTEAEGWHFFCFQGEATRKLAGK

Variants of: B1
Assay: protein stability index of a GFP-peptide fusion (GPS, HEK-293T) (PSI 1-6); higher = more stable
Details: c terminus: native
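Also: lentivirally expressed fusions sorted by FACS into six bins by GFP to DsRed ratio, PSI derived from sequencing read proportions per bin multiplied by bin number.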

| Variant | protein stability index |
| --- | --- |
| LTEAENWHFFCFQGEATRKLAGK [G6N] | 2.56 |
| LTEAEYWHFFCFQGEATRKLAGK [G6Y] | 1.61 |
| LTEAETWHFFCFQGEATRKLAGK [G6T] | 2.03 |
| LTEAEAWHFFCFQGEATRKLAGK [G6A] | 1.58 |
| LTEAEVWHFFCFQGEATRKLAGK [G6V] | 2.15 |
| LTEAEGWHFMCFQGEATRKLAGK [F10M] | 3.39 |
| LTEAEGWHFRCFQGEATRKLAGK [F10R] | 3.28 |
| LTEAEGWHFHCFQGEATRKLAGK [F10H] | 3.46 |
| LTEAEGWHFICFQGEATRKLAGK [F10I] | 2.42 |
| LTEAEGWHFYCFQGEATRKLAGK [F10Y] | 1.92 |
| LTEAEGWHFNCFQGEATRKLAGK [F10N] | 3.94 |
| LTEAEGWHFQCFQGEATRKLAGK [F10Q] | 3.61 |
| LTEAEGWHFFCFQGFATRKLAGK [E15F] | 1.57 |
| LTEAEGWHFFCFQGLATRKLAGK [E15L] | 3.25 |
| LTEAEGWHFFCFQGWATRKLAGK [E15W] | 1.77 |
| LTEAEGWHFFCFQGTATRKLAGK [E15T] | 2.72 |
| LTEAEGWHFFCFQGYATRKLAGK [E15Y] | 2.69 |
| LTEAEGWHFFCFQGCATRKLAGK [E15C] | 2.15 |
| LTEAEGWHFFCFQGEADRKLAGK [T17D] | 2.79 |
| LTEAEGWHFFCFQGEAGRKLAGK [T17G] | 2.15 |
| LTEAEGWHFFCFQGEAMRKLAGK [T17M] | 2.46 |
| LTEAEGWHFFCFQGEARRKLAGK [T17R] | 2.26 |
| LTEAEGWHFFCFQGEAQRKLAGK [T17Q] | 2.63 |
| LTEAEGWHFFCFQGEALRKLAGK [T17L] | 2.04 |
| LTEAEGWHFFCFQGEACRKLAGK [T17C] | 1.8 |

| Variant | protein stability index |
| --- | --- |
| LTEAEGWHFFCFQGEAPRKLAGK [T17P] | 3.05 |
| LTEAEGWHFFCFQGEAVRKLAGK [T17V] | 2.21 |
| LTEAEGWHKFCFQGEATRKLAGK [F9K] | 4.13 |
| LTEAEGWHDFCFQGEATRKLAGK [F9D] | 4.19 |
| LTEAEGWHTFCFQGEATRKLAGK [F9T] | 3.64 |
| LTEAEGWHHFCFQGEATRKLAGK [F9H] | 3.48 |
| LTEAEGWHMFCFQGEATRKLAGK [F9M] | 2.51 |
| LTEAEGWHYFCFQGEATRKLAGK [F9Y] | 2.69 |
| LTEAEGWHQFCFQGEATRKLAGK [F9Q] | 3.63 |
| LTEAEGWHEFCFQGEATRKLAGK [F9E] | 4.43 |
| LTEAEGWHSFCFQGEATRKLAGK [F9S] | 3.56 |
| LTEAEGWHFFCFQGESTRKLAGK [A16S] | 2.12 |
| LTEAEGWHFFCFQGEYTRKLAGK [A16Y] | 2.03 |
| LTEAEGWHFFCFQGEWTRKLAGK [A16W] | 1.08 |
| LTEAEGWHFFCFQGETTRKLAGK [A16T] | 1.68 |
| LTEAEGWHFFCFQGEITRKLAGK [A16I] | 1.64 |
| LTEAEGWHFFCFQGEPTRKLAGK [A16P] | 2.33 |
| LTEAEGWHFFCFQGELTRKLAGK [A16L] | 3.02 |
| LTEAEGWHFFCFQGERTRKLAGK [A16R] | 1.98 |
| LTEAEGWHFFCFQGEATRKLADK [G22D] | 2.64 |
| LTEAEGWHFFCFQGEATRKLAFK [G22F] | 1.8 |
| LTEAEGWHFFCFQGEATRKLAPK [G22P] | 2.47 |
| LTEAEGWHFFCFQGEATRKLAWK [G22W] | 2.17 |
| LTEAEGWHFFCFQGEATRKLAKK [G22K] | 2.7 |
| LTEAEGWHFFCFQGEATRKLAIK [G22I] | 1.91 |

| Variant | protein stability index |
| --- | --- |
| LTEAEGWHFFCFQGEATRKLAMK [G22M] | 1.6 |
| LTEAEGWHFFCFQGEATRKLATK [G22T] | 2.27 |
| LTEAEGWHFFCFQGEATRKLARK [G22R] | 3.52 |
| LTEAEGWHFFCFQEEATRKLAGK [G14E] | 2.83 |
| LTEAEGWHFFCFQPEATRKLAGK [G14P] | 1.83 |
| LTEAEGWHFFCFQWEATRKLAGK [G14W] | 2.8 |
| LTEAEGWHFFCFQAEATRKLAGK [G14A] | 2.48 |
| LTEAEGWHFFCFQCEATRKLAGK [G14C] | 1.19 |
| LTEAEGWHFFCFQQEATRKLAGK [G14Q] | 1.96 |
| LTEAEGWHFFCFQYEATRKLAGK [G14Y] | 3.67 |
| LTEAEGWHFFCFQIEATRKLAGK [G14I] | 4.25 |
| ITEAEGWHFFCFQGEATRKLAGK [L1I] | 1.79 |
| VTEAEGWHFFCFQGEATRKLAGK [L1V] | 2.22 |
| ETEAEGWHFFCFQGEATRKLAGK [L1E] | 3.73 |
| DTEAEGWHFFCFQGEATRKLAGK [L1D] | 3.43 |
| TTEAEGWHFFCFQGEATRKLAGK [L1T] | 2.33 |
| QTEAEGWHFFCFQGEATRKLAGK [L1Q] | 3.47 |
| GTEAEGWHFFCFQGEATRKLAGK [L1G] | 4.09 |
| KTEAEGWHFFCFQGEATRKLAGK [L1K] | 2.81 |
| LTEAEGWHFFCFQGEATRPLAGK [K19P] | 2.1 |
| LTEAEGWHFFCFQGEATRILAGK [K19I] | 2.39 |
| LTEAEGWHFFCFQGEATRLLAGK [K19L] | 2.93 |
| LTEAEGWHFFCFQGEATRRLAGK [K19R] | 2.23 |
| LTEAEGWHFFCFQGEATRTLAGK [K19T] | 2.05 |
| LTEAEGWHFFCFQGEATRQLAGK [K19Q] | 1.69 |

| Variant | protein stability index |
| --- | --- |
| LTEAEGWHFFCFQGEATRELAGK [K19E] | 2.68 |
| LTEAEGWHFFCFQGEATRHLAGK [K19H] | 2.58 |
| LTEAEGWHFFCFQGEATRFLAGK [K19F] | 1.94 |
| LTEAEGWHFFCFQGEATRYLAGK [K19Y] | 2.11 |
| LTEAEGWHFFCFQGEATRKLAGD [K23D] | 2.06 |
| LTEAEGWHFFCFQGEATRKLAGC [K23C] | 2.15 |
| LTEAEGWHFFCFQGEATPKLAGK [R18P] | 2.58 |
| LTEAEGWHFFCFQGEATNKLAGK [R18N] | 2.59 |
| LTEAEGWHFFCFQGEATVKLAGK [R18V] | 1.5 |
| LTEAEGWHFFCFQGEATLKLAGK [R18L] | 1.53 |
| LTEAEGWHFFCFQGEATKKLAGK [R18K] | 2.8 |
| LTEAEGWHFFCFQGEATGKLAGK [R18G] | 2.07 |
| LTEAEGWHFFCFQGEATQKLAGK [R18Q] | 1.87 |
| LTEAEGWHFFCFQGEATIKLAGK [R18I] | 3.84 |
| LTEAEGWHFFCFQGEATDKLAGK [R18D] | 3.15 |
| LTEAEGWHFFCFNGEATRKLAGK [Q13N] | 2.72 |
| LTEAEGWHFFCFCGEATRKLAGK [Q13C] | 1.48 |
| LTEAEGWHFFCFAGEATRKLAGK [Q13A] | 2.14 |
| LTEAEGWHFFCFEGEATRKLAGK [Q13E] | 2.89 |
| LTEAEGWHFFCFTGEATRKLAGK [Q13T] | 1.35 |
| LTEAEGWHFFCFDGEATRKLAGK [Q13D] | 3.14 |
| LTEAEGWHFFCFYGEATRKLAGK [Q13Y] | 2.66 |
